From the supplement of paper PMC5998384

What was measured:
HeLa Kyoto [1] = assay: thermal stability score vs G1/S (z-score of summed log2 fold changes over temperatures); higher = more thermally stable than in G1/S
HeLa Kyoto [2] = assay: solubility in G1/S (NP-40 vs SDS abundance) (log2 ratio); higher = more soluble; conditions: cell cycle stage: G1/S
HeLa Kyoto [3] = assay: solubility change mitosis vs G1/S (difference of NP-40 vs SDS log2 ratios) (log2 ratio difference); higher = more soluble in mitosis
HeLa Kyoto [4] = assay: melting temperature (median over replicates), in situ; higher = more thermally stable
[5] = cell cycle stage: early G1 (4.5 h after nocodazole release)
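Wherever melting temperature (median over replicates), in situ is given: HeLa Kyoto cells synchronized by double thymidine or nocodazole block, proteins quantified by TMT10plex mass spectrometry, three independent biological replicates.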
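Wherever solubility change mitosis vs G1/S (difference of NP-40 vs SDS log2 ratios) is given: synchronized HeLa Kyoto cells (double thymidine block for G1/S, nocodazole release for mitosis), protein amounts in NP-40 versus SDS lysates quantified by mass spectrometry, three biological replicates.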
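Wherever solubility in G1/S (NP-40 vs SDS abundance) is given: HeLa Kyoto cells arrested at G1/S by double thymidine block, proteins quantified by TMT10plex mass spectrometry in mild NP-40 versus SDS extracts, three biological replicates.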
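Wherever thermal stability score vs G1/S (z-score of summed log2 fold changes over temperatures) is given: synchronized HeLa Kyoto cells, proteins quantified by TMT10plex mass spectrometry, three biological replicates, mitosis taken 0.5 h after nocodazole release, G1/S directly after double thymidine block.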

Row | Substance | thermal stability score (HeLa Kyoto [1]; [5]) | thermal stability score (HeLa Kyoto [1]; cell cycle stage: mitosis) | solubility in G1/S (log2) (HeLa Kyoto [2]) | solubility change mitosis (log2) (HeLa Kyoto [3]) | melting temperature (HeLa Kyoto [4]; cell cycle stage: G1/S) [°C] | melting temperature (HeLa Kyoto [4]; cell cycle stage: mitosis) [°C]
1 | MGLQPLEFSDCYLDSPWFRERIRAHEAELERTNKFIKELIKDGKNLIAATKSLSVAQRKFAHSLRDFKFEFIGDAVTDDERCIDASLREFSNFLKNLEEQREIMALSVTETLIKPLEKFRKEQLGAVKEEKKKFDKETEKNYSLIDKHLNLSAKKKDSHLQEADIQVEQNRQHFYELSLEYVCKLQEIQERKKFEFVEPMLSFFQGMFTFYHQGHELAKDFNHYKMELQINIQNTRNRFEGTRSEVEELMNKIRQNPKDHKRASQFTAEGYLYVQEKRPAPFGSSWVKHYCMYRKAAKKFNMIPFEHRSGGKLGDGEVFFLKECTKRHTDSIDRRFCFDIEAADRPGVSLTMQAFSEEERKQWLEALGGKEALSHSFNTAIIPRPEGNAQLDKMGFTIIRKCISAVETRGINDQGLYRVVGVSSKVQRLLSMLMDVKTCNEVDLENSADWEVKTITSALKQYLRSLPEPLMTYELHGDFIVPAKSGSPESRVNAIHFLVHKLPEKNKEMLDILVKHLTNVSNHSKQNLMTVANLGVVFGPTLMRPQEETVAALMDLKFQNIVVEILIENHEKIFRTPPDTTFPEPTCLSASPPNAPPRQSKRQGQRTKRPVAVYNLCLELEDGDNPYPSKEDTPTSSLDSLSSPSPVTTAVPGPPGPDKNHLLADGGSFGDWASTIPGQTRSSMVQWLNPQSPTTTSSNSAVTPLSPGSSPFPFSPPATVADKPPESIRSRKARAVYPCEAEHSSELSFEIGAIFEDVQTSREPGWLEGTLNGKRGLIPQNYVKLL [ARHGAP10] | -0.188 | -0.186 | -0.255 | 0.08 | 51.7 | –
2 | MGNCHTVGPNEALVVSGGCCGSDYKQYVFGGWAWAWWCISDTQRISLEIMTLQPRCEDVETAEGVALTVTGVAQVKIMTEKELLAVACEQFLGKNVQDIKNVVLQTLEGHLRSILGTLTVEQIYQDRDQFAKLVREVAAPDVGRMGIEILSFTIKDVYDKVDYLSSLGKTQTAVVQRDADIGVAEAERDAGIREAECKKEMLDVKFMADTKIADSKRAFELQKSAFSEEVNIKTAEAQLAYELQGAREQQKIRQEEIEIEVVQRKKQIAVEAQEILRTDKELIATVRRPAEAEAHRIQQIAEGEKVKQVLLAQAEAEKIRKIGEAEAAVIEAMGKAEAERMKLKAEAYQKYGDAAKMALVLEALPQIAAKIAAPLTKVDEIVVLSGDNSKVTSEVNRLLAELPASVHALTGVDLSKIPLIKKATGVQV [FLOT2] | -2.8 | -0.0606 | -1.04 | 0.153 | 56.8 | 55.8
3 | SDE2 | 2.03 | 1.98 | 0.563 | 0.0378 | 49.5 | 49.5
4 | MVSRVQLPPEIQLAQRLAGNEQVTRDRAVRKLRKYIVARTQRAAGGFTHDELLKVWKGLFYCMWMQDKPLLQEELGRTISQLVHAFQTTEAQHLFLQAFWQTMNREWTGIDRLRLDKFYMLMRMVLNESLKVLKMQGWEERQIEELLELLMTEILHPSSQAPNGVKSHFIEIFLEELTKVGAEELTADQNLKFIDPFCRIAARTKDSLVLNNITRGIFETIVEQAPLAIEDLLNELDTQDEEVASDSDESSEGGERGDALSQKRSEKPPAGSICRAEPEAGEEQAGDDRDSGGPVLQFDYEAVANRLFEMASRQSTPSQNRKRLYKVIRKLQDLAGGIFPEDEIPEKACRRLLEGRRQKKTKKQKRLLRLQQERGKGEKEPPSPGMERKRSRRRGVGADPEARAEAGEQPGTAERALLRDQPRGRGQRGARQRRRTPRPLTSARAKAANVQEPEKKKKRRE [RRP1] | 2.67 | 7.98 | -1.24 | 0.797 | 46.6 | 48.8
